Tests used:
[1] = tested on: HeLa Kyoto; assay: solubility change mitosis vs G1/S (difference of NP-40 vs SDS log2 ratios) (log2 ratio difference); higher = more soluble in mitosis
[2] = tested on: HeLa Kyoto; assay: melting temperature (median over replicates), in situ; higher = more thermally stable
[3] = tested on: HeLa Kyoto; assay: thermal stability score vs G1/S (z-score of summed log2 fold changes over temperatures); higher = more thermally stable than in G1/S
[4] = tested on: HeLa Kyoto; assay: solubility in G1/S (NP-40 vs SDS abundance) (log2 ratio); higher = more soluble; conditions: cell cycle stage: G1/S
[5] = cell cycle stage: early G1 (4.5 h after nocodazole release)
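For melting temperature (median over replicates), in situ in this document: HeLa Kyoto cells synchronized by double thymidine or nocodazole block, proteins quantified by TMT10plex mass spectrometry, three independent biological replicates.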
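For solubility change mitosis vs G1/S (difference of NP-40 vs SDS log2 ratios) in this document: synchronized HeLa Kyoto cells (double thymidine block for G1/S, nocodazole release for mitosis), protein amounts in NP-40 versus SDS lysates quantified by mass spectrometry, three biological replicates.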
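For solubility in G1/S (NP-40 vs SDS abundance) in this document: HeLa Kyoto cells arrested at G1/S by double thymidine block, proteins quantified by TMT10plex mass spectrometry in mild NP-40 versus SDS extracts, three biological replicates.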
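For thermal stability score vs G1/S (z-score of summed log2 fold changes over temperatures) in this document: synchronized HeLa Kyoto cells, proteins quantified by TMT10plex mass spectrometry, three biological replicates, mitosis taken 0.5 h after nocodazole release, G1/S directly after double thymidine block.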

For “MEANGLGPQGFPELKNDTFLRAAWGEETDYTPVWCMRQAGRYLPEFRETRAAQDFFSTCRSPEACCELTLQPLRRFPLDAAIIFSDILVVPQALGMEVTMVPGKGPSFPEPLREEQDLERLRDPEVVASELGYVFQAITLTRQRLAGRVPLIGFAGAPWTLMTYMVEGGGSSTMAQAKRWLYQRPQASHQLLRILTDALVPYLVGQVVAGAQALQLFESHAGHLGPQLFNKFALPYIRDVAKQVKARLREAGLAPVPMIIFAKDGHFALEELAQAGYEVVGLDWTVAPKKARECVGKTVTLQGNLDPCALYASEEEIGQLVKQMLDDFGPHRYIANLGHGLYPDMDPEHVGAFVDAVHKHSRLLRQN [UROD]”, the “solubility change mitosis (log2)” value [1] was -0.193, the melting temperature ([2]; cell cycle stage: G1/S) was 56.5 °C and the melting temperature ([2]; cell cycle stage: mitosis) was 56.7 °C. The thermal stability score [3, 5] was -0.168, the thermal stability score ([3]; cell cycle stage: mitosis) was -0.608 and the “solubility in G1/S (log2)” value [4] was 0.254.

“MEDPQSKEPAGEAVALALLESPRPEGGEEPPRPSPEETQQCKFDGQETKGSKFITSSASDFSDPVYKEIAITNGCINRMSKEELRAKLSEFKLETRGVKDVLKKRLKNYYKKQKLMLKESNFADSYYDYICIIDFEATCEEGNPPEFVHEIIEFPVVLLNTHTLEIEDTFQQYVRPEINTQLSDFCISLTGITQDQVDRADTFPQVLKKVIDWMKLKELGTKYKYSLLTDGSWDMSKFLNIQCQLSRLKYPPFAKKWINIRKSYGNFYKVPRSQTKLTIMLEKLGMDYDGRPHCGLDDSKNIARIAVRMLQDGCELRINEKMHAGQLMSVSSSLPIEGTPPPQMPHFRK [ERI1]” was tested, and the “solubility change mitosis (log2)” value [1] was -0.00712, the melting temperature ([2]; cell cycle stage: G1/S) was 51 °C and the melting temperature ([2]; cell cycle stage: mitosis) was 49.9 °C. For the same substance, the thermal stability score [3, 5] was -0.616, the thermal stability score ([3]; cell cycle stage: mitosis) was 0.0498 and the “solubility in G1/S (log2)” value [4] was -0.0987.

With “MAAFSEMGVMPEIAQAVEEMDWLLPTDIQAESIPLILGGGDVLMAAETGSGKTGAFSIPVIQIVYETLKDQQEGKKGKTTIKTGASVLNKWQMNPYDRGSAFAIGSDGLCCQSREVKEWHGCRATKGLMKGKHYYEVSCHDQGLCRVGWSTMQASLDLGTDKFGFGFGGTGKKSHNKQFDNYGEEFTMHDTIGCYLDIDKGHVKFSKNGKDLGLAFEIPPHMKNQALFPACVLKNAELKFNFGEEEFKFPPKDGFVALSKAPDGYIVKSQHSGNAQVTQTKFLPNAPKALIVEPSRELAEQTLNNIKQFKKYIDNPKLRELLIIGGVAARDQLSVLENGVDIVVGTPGRLDDLVSTGKLNLSQVRFLVLDEADGLLSQGYSDFINRMHNQIPQVTSDGKRLQVIVCSATLHSFDVKKLSEKIMHFPTWVDLKGEDSVPDTVHHVVVPVNPKTDRLWERLGKSHIRTDDVHAKDNTRPGANSPEMWSEAIKILKGEYAVRAIKEHKMDQAIIFCRTKIDCDNLEQYFIQQGGGPDKKGHQFSCVCLHGDRKPHERKQNLERFKKGDVRFLICTDVAARGIDIHGVPYVINVTLPDEKQNYVHRIGRVGRAERMGLAISLVATEKEKVWYHVCSSRGKGCYNTRLKEDGGCTIWYNEMQLLSEIEEHLNCTISQVEPDIKVPVDEFDGKVTYGQKRAAGGGSYKGHVDILAPTVQELAALEKEAQTSFLHLGYLPNQLFRTF [DDX1]” the “solubility change mitosis (log2)” value [1] was 0.00283, the melting temperature ([2]; cell cycle stage: G1/S) was 50.7 °C and the melting temperature ([2]; cell cycle stage: mitosis) was 50.9 °C. The thermal stability score [3, 5] was 0.00991, the thermal stability score ([3]; cell cycle stage: mitosis) was 0.413 and the “solubility in G1/S (log2)” value [4] was -0.286.

With “MRCALALSALLLLLSTPPLLPSSPSPSPSPSQNATQTTTDSSNKTAPTPASSVTIMATDTAQQSTVPTSKANEILASVKATTLGVSSDSPGTTTLAQQVSGPVNTTVARGGGSGNPTTTIESPKSTKSADTTTVATSTATAKPNTTSSQNGAEDTTNSGGKSSHSVTTDLTSTKAEHLTTPHPTSPLSPRQPTSTHPVATPTSSGHDHLMKISSSSSTVAIPGYTFTSPGMTTTLLETVFHHVSQAGLELLTSGDLPTLASQSAGITASSVISQRTQQTSSQMPASSTAPSSQETVQPTSPATALRTPTLPETMSSSPTAASTTHRYPKTPSPTVAHESNWAKCEDLETQTQSEKQLVLNLTGNTLCAGGASDEKLISLICRAVKATFNPAQDKCGIRLASVPGSQTVVVKEITIHTKLPAKDVYERLKDKWDELKEAGVSDMKLGDQGPPEEAEDRFSMPLIITIVCMASFLLLVAALYGCCHQRLSQRKDQQRLTEELQTVENGYHDNPTLEVMETSSEMQEKKVVSLNGELGDSWIVPLDNLTKDDLDEEEDTHL [PODXL]” the “solubility change mitosis (log2)” value [1] was -0.092, the melting temperature ([2]; cell cycle stage: G1/S) was 58.6 °C and the thermal stability score [3, 5] was -3.38. For the same substance, the thermal stability score ([3]; cell cycle stage: mitosis) was -2.15 and the “solubility in G1/S (log2)” value [4] was -0.214.

“MENTENSVDSKSIKNLEPKIIHGSESMDSGISLDNSYKMDYPEMGLCIIINNKNFHKSTGMTSRSGTDVDAANLRETFRNLKYEVRNKNDLTREEIVELMRDVSKEDHSKRSSFVCVLLSHGEEGIIFGTNGPVDLKKITNFFRGDRCRSLTGKPKLFIIQACRGTELDCGIETDSGVDDDMACHKIPVEADFLYAYSTAPGYYSWRNSKDGSWFIQSLCAMLKQYADKLEFMHILTRVNRKVATEFESFSFDATFHAKKQIPCIVSMLTKELYFYH [CASP3]” was tested, and the “solubility change mitosis (log2)” value [1] was 0.0123, the melting temperature ([2]; cell cycle stage: G1/S) was 55.7 °C and the melting temperature ([2]; cell cycle stage: mitosis) was 56.3 °C. For the same substance, the thermal stability score [3, 5] was 0.22, the thermal stability score ([3]; cell cycle stage: mitosis) was -0.0196 and the “solubility in G1/S (log2)” value [4] was 0.135.

LACTB2 was tested, and the “solubility change mitosis (log2)” value [1] was -0.0335, the melting temperature ([2]; cell cycle stage: G1/S) was 57.7 °C and the melting temperature ([2]; cell cycle stage: mitosis) was 56.1 °C. For the same substance, the thermal stability score [3, 5] was -2.61, the thermal stability score ([3]; cell cycle stage: mitosis) was -0.348 and the “solubility in G1/S (log2)” value [4] was 0.418.

From the supplement of paper PMC5998384
